According to US20240251767A1 (LEVERAGEN, published 2024):
Read-outs that look alike come from different tables or passages of the source.

B1: M2S521_378 Nb-human Fc fusion (Fc fusion, not shown: a dimerising Fc or GST)
VH: EVQLQQSGPELVKPGASVKISCKASGYTFTDYYMKWVKQSHGKSLEWIGDINPKNGGTNYNQKFKDKATLTVDKSSSTAYMELRSLTSEDSAVYYCARLEDGYYGYAIDYWSQGTSVTVSS
notes: also called LVGN-S231378; LVGN-S521378
B2: MS329_5 Nb-human Fc fusion (Fc fusion, not shown: a dimerising Fc or GST)
VH: EVQLQQSGPELVKPGASVKMSCKASGYTFTDYYIKWEKQSHGKSLEWIGDINPKNGETFYNQQFKGKATLTVDKSSSTAYMQLNSLTSEDSAVYYCARKEYGDYGYAVDYWGQGTSVTVSS
notes: also called LVGN-S3205; LVGN-53205

Experiments:
[1] = target: T1, Spike protein of the COVID-19 Spike-ACE2 Binding Assay Kit (Raybiotech) (SARS-CoV2, UniProt P0DTC2 319-541)
[2] = target: T1, Spike protein of the COVID-19 …; remark: listed apart in the source

Binder | IC50 [1] | IC50 [2]
B1 | 3.3 nM | –
B2 | 0.4 nM | 0.397 nM
